Source: a protein production outcome set (Wang et al. 2014)

Assay: label from the status in PepcDB records

Protein production, failed:
MAARRFTGDELAALLPHAGDAFFLRDAEVDGWRASGGASWRSDHPHLRGHFPGEPIVPGVYLLEAAAQLAGVAIRCGAEDWTPETLGVLAGVRKSYFHRFVRPGERVDYALDVKPAPGSAMYAVSGLGKVDGDKVLTVELTIAGVRRLEHHHHHH
MAASFAFLRDIRPYKTSWRIQVKVFHSWRQYTSMTGETLELVLVDAHGVKIHASVKKDLVSNFVNNLLLNEWRFIETFALNHASGQFRPTGHLYKMTFVTGTQCILLDVMGQVVDIGELETLEAKNKPTIKLDFELRDDTDERMSCTLWGAFAQSVFSACEFADGQMVICVLRFAKIKSYKGVRSFSNSFYASQVHINPDFPEVQAFVSRVPKFHMVTVKQDDDCKQYERKSIRDFLHSMEVRVVCTIYALDTDWSWYYFSCRNCNKKVTHIHAGVNTTSLKSSKPRFWCDVCKNGVTNVQAK
MAASSPDSYISRRPYVTMGLTVAGVLVLVVATQLVEVLFTVFAGILLAVFLAGVTQELTEDTRLPRPLAVALTLIGLGGVLVGLWALAGPDISEQASALATLLPDAAERLASRIRTTVQRYGWMQRYVDPSQLLPPVSSVLGRVTNVFRDTLNLLVNGFIILFIGIYGGAAPQSYLDGVVQLVPPSSRPRARDVLSALGRALRWWLTGRLILMLIVGVLTAVGLKVVGIPSPIALGLLAALFSFVPYLGPVLSVLPALLVASLIGPTEVLYVILVYGAVQLLESYLISPLVQQQAVHIPPATVITAQFIGGVSAGAGGVLLATPFAIVVIVLVQTLYVEDVLGDEVSLLGEH
MAASSSARVAAATAPTASPTSAAPAAPHDGEDNVAADAPYRVLIVEDDRSQALFAQSVLHGAGMHAQVEMTAASVPQAIQDYHPDLILMDLHMPELDGIRLTTLIRQQPGQQLLPIVFLTGDPDPERQFEVLDSGADDFLTKPIRPRHLIAAVSNRIRRARQQALQQAGEQVSVRSNPETGLPTRGHVMDLLADALERKQSGGLFFIEIASALGLRERYGYAAYERLMTQAGHRLASAAQPYPLARLNDNSFLLLAVDMPEASLEQQALEIRQRLSANAFPVREEESVHVRCAIGVAPLGLGFDDTGSALEAVERTALQARLRSDGVQTYLAPSQAEQQEQLRLVEGQLELAYQPIVAVAGGDTAQYQVLLRLRQADGTLLSAGQVIPAAEAAGRIADLDQQVMDHALGLLHLYQHASPPLRLFVSQSPRTLARDAFADWLLKALVERGVAGQSLIVDLRLDDALIHAVTVQQFCAKLMPAGVQFCLSQFEPGDEANALLAQLPLSFVRMANRFADAHGNAAVRDELRGVIDIAHQRGLLIIGQRIEDPQAAAAMWMSGVDFIQGNLVQTVGKELDFDFTSAVL
MAATTGLETLVDQIISVITNDGRNIVGVLKGFDQATNIILDESHERVFSTKEGVQQHVLGLYIIRGDNIGVIGELDEELDASLDFSKLRAHPLKPVVH
MAAWVIWFIIAGILFIAEMLSITFYMLWLGIGAVVGGLIALFAPDALLLQVTVGAIVSLTLTFFTKRISKNFREAKGFTDTVDMLVGKRGIVMQAITNEANGIVKVDGDTWTAIADSSIDAGEKVVVIKRHSTILQVKKESE
MAAYLERCDSVEEDYIDMEVTSFTNLVRKTLSNNYPREFEFQMSHLCPLEIDKTTSPADELFYKGKLLPLHLPPRLQMVQKILEDYTFDDEFYSTPLATGTVTTPVTSNTPFESCTVSPAESCQVSKELNPEDYFLEYSDSLEEDDEKKKSWTTKLRLMKQSSLGTKIKASRAYLRSFFGKTSCSDESSCASSAARVADEDSVLRYSRVKPFGQIKTERPKKQSNGSVSGSHRRSFSVSMRRQAAKSSNNKSSNSLGFRPLQFLKRSTSSSSEIENSIQGAILHCKQSQQQKQKQKQYSTVNEVGFCSLSASRIAARDDQEWAQMFRG
MACFMALVLARFGFGFCMLLAALVLLAAATLLATRLVGWAVRAFALERSQALASGVAIFILVALALWGCHAVGEVLYGAIGATALVGGAPHWLAGNSHVSAAALMGATTAAAMLAGGPAFWRWLRARRAAAAEQPAPRKAAPPKGAKPAARAAKAAAKTQIAPRGQRIPWLGWTAFFLLFIGAAVLAFAYIVAPIEAGASGLRLEHATRARPVYLAGLTLLGGGAFFLLAWLSRRRLPGD
MADALKIGIAGLGTVGASLVRIIQQKSNELAVTCGRPITITAVSARDKTRDRGVDLSAVAWFDRPEDLAEKGDIDVFVELMGGAEGAANVSVRAALQRGLHVVTANKALLAYHGVELATIAEEKGSLLNFEAAVAGGIPVIKALRESLTGNAVSRIYGIMNGTCNYILTKMEKEGLSFAECLKEAQRLGYAEADPAFDIEGNDTAHKLAILTTLAFGNRIAADDIYLEGITNISIEDIHAAAELGYRIKLLGVAQRTETGIEQRVHPTMVPVDSVIAQVDGITNAVAIESDVLGELLMVGPGAGGNATASSVLGDIADIAKSQPGAQRVPVLGHPAKALEPYRKAQMQSHEGGYFIRLTVLDRTGVFASVATRMAENHISLESIVQRSTQHLAPSHHQTIILVTHATMEESVRKAVASIRSEGYLFGEPQVIRIERPKEEA
MADDIRILMCPPDHYDVDYVINPWMEGNIHKSSQERAVEQWKKLHQTIKECAIVDLVKPAKGWPDMVFTANAGLVLGENVVLSRFYHKERQGEEPYFKAWFEENGFTVYELPQDLPFEGAGDALFDREGRWLWAGYGFRSELDSHPYIAKWLDTEVVSLRLIDERFYHLDTCFCPLSGGYLLYYPPAFDAYSNRVIEMRIPPEKRIIVEELDAVNFACNAVNVNDIIIMNLVSRTLKEKLAEAGFKVRETPLTEFLKAGGAAKCLTLRVTEPILPDVHATVSIESRVIRMEGHLLDAGILNQALDLVVENSGSFRVLNFNLGVERNSTSSAEVRVSAPSHQIMEEIMTELIDLGAVPPPQELCDINTETVTQGGVAPDDFYVSTIYPTEVRVNCEWVQVTGQRMDAAIVVTSNPPSARCVLLRDLQVGDRVMVGVEGIRTIKKVESHEGGTRKENKEFAFMAAGVSSERRVELLVEQIAWEMRQIRDQGGKIVVTAGPVVIHTGGAQHLSHLVREGYVHALLGGNAIAVHDIEQATMGTSLGVDMQRGIPVRGGHRHHLKIINSVRRYGGIRQAVEAGFISKGVMYECVKNNIPYCLAGSIRDDGPLPDTEMNLVRAQSRYSELIQGADMILMLSSMLHSIGVGNMTPSGVKMVCVDINPAVVTKLSDRGSVESVGVVTDVGLFLSLLVRQLQQLTRPYSLAETL
MADDKKKRNKKKKRSTGNKRKMTTEQSEAFKSITDWLILGSSPSLSSSSDDFAVNINSGSLRCGEKVVFELHSHSNRSDGFLSPSKVVERAYNNGVKVLSLTDHDTMAGVPEAVEAGRRFGIKIIPGIEISTLFGLRDSGSEEPVHILAYYGTSGPALYDELEDFLVKIRDGRFVRGREMVLKLNKLKIPLKWEHVTRIAGKDVAPGRMHVARALLEAGYVENLRQAFTKYLHDGGPAYATGTEPMAEEAVKLICKTGGVAVLAHPWALKNHVGIIRRLKDAGLHGVEVYRSDGKLEVFSELADTYNLLKLGGSDYHGKGGRNESELGSVNLPVTALQDFLNVGRPIWCEAIKATMRAFLDQPSDSNLSNILRFDKARILKGNSAWSCGKELMDRCLAIWLTSDERNSNDFEALRLKLSFVPIMSNGTCVTVGP
MADETNALRQKNRELNKKIDWQKDYDREKLERDNRDLEQCKEDLLAANENLRNRIQEWENEKNKLDPRDERIKELEEEKRELEGILAQKENAEQKYNTLSVKNKQLEAELDMLNEKFEKLKNMYAGVEDFEKRQKNIKEQIVKTNPKVLGAPSNEVEELAFLERIEKGMQEFNVFYPKRLLYMFHTALKSTSLSPLSVLSGVSGTGKSELPKLYVHFGGLNFLSIAVQPTWDSPESLMGYFHAIENKFDATEFLRFFIQTTLSNNEEPYGLKEAMSIVLLDEMNLAHIELYFAEFLSKLEIKCSQETNISIKLGTGLTWELPLGDNLLFVGTMNEDESTKMLSDKVLDRAFCLNFERPKILKGKQQKPIPSNDGYLKVETFNRWINKKGDQEAKLEGKYKKLTEEINERLDACGRSIGHRVWQSMSTYMHNHPLVLHASDKNKALQFAYEECLVLKIFPKLRGVQTRNNQHLTKIQDLLKDFSVSSDFKQAMENDFKEFVFNSTNYLNNVEYEKLLKK
MADFKIVISDPQAPKEETVVKVKVVGDPEIKFDENVKEGFELPILKMNSKTAEKIKAVHGVATIRMYKPGTKDKVKITGKIIVDDNIPENEVRVNAEQLVNATGTNELEGELFRARAWQIRINDDRTKLLIGLKIGDEFDGSIVGLKNVKLKIRGGSDNSGFPMRPDVMGGVKKRVLLSGPPGFHPREKGERRRKMIRGNTITEDIVQINTVIKYV
MADFSRLPGPNADLWDWQLLAACRGVDSSLFFHPEGERGAARSARENSAKEVCMRCPVRAECAAHALAVREPYGVWGGLTEDEREELMGRARNRLVAATASASAGGEAAGPH
MADFTLSKSLFSGKYRNASSTPGNIAYALFVLFCFWAGAQLLNLLVHAPGVYERLMQVQETGRPRVEIGLGVGTIFGLIPFLVGCLIFAVVALWLHWRHRRQ
MADLINILNHFVQEQPEAVAVRHTNDELTYKQLDEESSKLAHLLQDSKKPMILYGHMSPYMIVGMIGAIKSGCGYVPIDTSVPKERVNMIIDKVQPEIIFNTSDETLEQTNAQVLKVSDIQDSQYPIVFDSQMKQNDVVYTIFTSGSTGEPKGVQIEYASLNEFAEWMVSLNKTGTGKEWLNQAPFSFDLSVMAIYPCLTSGGTLNLVDKDMIKKPKLLNEMLVQTPMNVWVSTPSFIEMCLLLPNLNEQQYSSLKQFFFCGEILPHKTAKALVERFPNSMIYNTYGPTEATVAVTSIQITEEILNQYNPLPVGVARPGTKLFATEEGELVIEGQSVSLGYLKNEEKTTAVFNFEDGVRTYHTGDKAKIEDGLWFIQGRIDFQIKLNGYRMELEEIETQLRQSKHVREAVVVPVYKNGKVIHLIGAVVPTEPVEDNLAMTTHIKHELKSRLPEYMIPRKFEWMEQLPLTSNGKLDRKKIAEVVNG
MADQGLEESNPMDLSKHPSGIVPTPHSQVIYKMPPRIAAIRLVSSHREVYEPCDDSFALVDALLADRTNLIEHNPKICMEIGCGSGYVITSLILLLQNEVPGVHYLAIDTNPIATRVTKETLEAHGVNADVICADLATGLEKRLAGSVDVIVVNPPYVPTPEYEVGMEGIASAWAGGENGRTVIDKILPVVDLLLSEKGWFYLVTLTSNFPAEICLMMRKKGYASRIVVQRSTEEENLVILKFWRDKDEESQDKETSSSSFVSQFSKSLSSLMEKQWR
MADQNRSEEKTVKSPNVFERVKEEIEAMGHHEKSKSRHHDKETHGTSDDIDESTPIDYVKGPGFFQRLKEEIEAIFNAVTPKRSSKK
MADTHPLVTVETIVLVGLGGFAGSNLRYFVGLFFPGLQGTLLVNVCGSFALGVLVYEGLQVGALASETKLAASTGFISSFTTYSTFAVETVLTPEWAVANVVGSYALGFAGVLVGREVVRLFAGGGQ
MADTITVSIVLAYFVVTLALGFFAARKIKTAEHYYGARKLFGMFVTAVAVFSGIASAFTFIGGPGLVYPMGGTVNWVIWTPVISMPLIWYLLGKRIKLITEARPVATLPDLTAARFKSDAVRFLTAVALIFGIITYLAGNVMGAGLVLTDMLGTPLELSIAIVFGIIMLYTAFGGMVASILTDFFQGLVMMVAAIIFVVFILIMTGGVENLFATIAESNPRHIDPIGVGPIWLGIMGWWWALNIGSSVQPHAVTKFFALKDYRDLKWGALVTTIAWTLACLMWFFGGYASVWVVIKGLAEAPARSDQAIFGVIAQMPVVLKAVIYAGVLAAIMSTVSGFISMGTAAVVRDIPTAIGKSLSQRGQILWGRVVTVILTVVAALFGYYGGYVVGILVTLGLGYFASMLFPLLVIGLNWKRATKEAAIITTALTVAMNLGFLVYEKVLSMSLPYGLPGYGVTFAVGIITMVLVSLITKGAALDDMDEDIRAAMSL
